Measured values published in paper PMC4338613.

Key:
Experiment in all cases: co-IP
[1] = molecular target: LAP-tagged FUS/TLS R495X (human) (UniProt P35637)
[2] = molecular target: LAP-tagged FUS/TLS R521G (human) (UniProt P35637)
[3] = molecular target: LAP-tagged FUS/TLS P525L (human) (UniProt P35637)

Measured: fold reduction of association against wild-type FUS/TLS

Sm-B/D (components of Sm core)
5 fold: [1] | [2] | [3]
